Experimental data: IntAct's records for PubMed 26859459

B1: Mitogen-activated protein kinase kinase kinase 21 (Homo sapiens), Q5TCX8 (parent)
chain: MALRGAAGATDTPVSSAGGAPGGSASSSSTSSGGSASAGAGLWAALYDYEARGEDELSLRRGQLVEVLSQDAAVSGDEGWWAGQVQRRLGIFPANYVAPCRPAASPAPPPSRPSSPVHVAFERLELKELIGAGGFGQVYRATWQGQEVAVKAARQDPEQDAAAAAESVRREARLFAMLRHPNIIELRGVCLQQPHLCLVLEFARGGALNRALAAANAAPDPRAPGPRRARRIPPHVLVNWAVQIARGMLYLHEEAFVPILHRDLKSSNILLLEKIEHDDICNKTLKITDFGLAREWHRTTKMSTAGTYAWMAPEVIKSSLFSKGSDIWSYGVLLWELLTGEVPYRGIDGLAVAYGVAVNKLTLPIPSTCPEPFAKLMKECWQQDPHIRPSFALILEQLTAIEGAVMTEMPQESFHSMQDDWKLEIQQMFDELRTKEKELRSREEELTRAALQQKSQEELLKRREQQLAEREIDVLERELNILIFQLNQEKPKVKKRKGKFKRSRLKLKDGHRISLPSDFQHKITVQASPNLDKRRSLNSSSSSPPSSPTMMPRLRAIQLTSDESNKTWGRNTVFRQEEFEDVKRNFKKKGCTWGPNSIQMKDRTDCKERIRPLSDGNSPWSTILIKNQKTMPLASLFVDQPGSCEEPKLSPDGLEHRKPKQIKLPSQAYIDLPLGKDAQRENPAEAESWEEAASANAATVSIEMTPTNSLSRSPQRKKTESALYGCTVLLASVALGLDLRELHKAQAAEEPLPKEEKKKREGIFQRASKSRRSASPPTSLPSTCGEASSPPSLPLSSALGILSTPSFSTKCLLQMDSEDPLVDSAPVTCDSEMLTPDFCPTAPGSGREPALMPRLDTDCSVSRNLPSSFLQQTCGNVPYCASSKHRPSHHRRTMSDGNPTPTGATIISATGASALPLCPSPAPHSHLPREVSPKKHSTVHIVPQRRPASLRSRSDLPQAYPQTAVSQLAQTACVVGRPGPHPTQFLAAKERTKSHVPSLLDADVEGQSRDYTVPLCRMRSKTSRPSIYELEKEFLS
partner: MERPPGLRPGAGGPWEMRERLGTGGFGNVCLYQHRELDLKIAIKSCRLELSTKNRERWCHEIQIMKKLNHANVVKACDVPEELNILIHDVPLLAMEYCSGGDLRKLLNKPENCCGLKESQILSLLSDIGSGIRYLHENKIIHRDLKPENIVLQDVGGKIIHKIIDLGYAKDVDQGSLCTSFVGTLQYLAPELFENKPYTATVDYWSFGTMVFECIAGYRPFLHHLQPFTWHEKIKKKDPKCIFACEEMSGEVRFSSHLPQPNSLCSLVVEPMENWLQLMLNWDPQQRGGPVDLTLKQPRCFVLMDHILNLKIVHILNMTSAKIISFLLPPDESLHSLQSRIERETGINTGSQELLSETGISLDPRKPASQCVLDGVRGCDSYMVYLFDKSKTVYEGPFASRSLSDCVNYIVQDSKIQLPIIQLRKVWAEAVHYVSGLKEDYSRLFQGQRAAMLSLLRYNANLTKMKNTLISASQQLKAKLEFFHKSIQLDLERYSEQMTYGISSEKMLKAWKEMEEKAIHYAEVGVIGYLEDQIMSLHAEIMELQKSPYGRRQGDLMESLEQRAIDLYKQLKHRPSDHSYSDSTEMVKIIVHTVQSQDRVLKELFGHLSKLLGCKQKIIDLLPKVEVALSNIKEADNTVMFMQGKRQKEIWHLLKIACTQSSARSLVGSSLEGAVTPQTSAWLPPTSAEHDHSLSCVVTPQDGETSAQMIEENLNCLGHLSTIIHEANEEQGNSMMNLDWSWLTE

Variants of: B1
Details: with ikka_human CHUK

Variant	effect of a mutation on the interaction
K151A	decreasing interaction strength
